Here are results for one substance from publication PMC4056191.

The test concerns the target H3.3 G90M (pCDH, transfected) (human) (UniProt P84243). Nature of the test: co-IP.

Sequence of DAXX found with transfected H3 in 293T cells (Q9UER7 whole entry): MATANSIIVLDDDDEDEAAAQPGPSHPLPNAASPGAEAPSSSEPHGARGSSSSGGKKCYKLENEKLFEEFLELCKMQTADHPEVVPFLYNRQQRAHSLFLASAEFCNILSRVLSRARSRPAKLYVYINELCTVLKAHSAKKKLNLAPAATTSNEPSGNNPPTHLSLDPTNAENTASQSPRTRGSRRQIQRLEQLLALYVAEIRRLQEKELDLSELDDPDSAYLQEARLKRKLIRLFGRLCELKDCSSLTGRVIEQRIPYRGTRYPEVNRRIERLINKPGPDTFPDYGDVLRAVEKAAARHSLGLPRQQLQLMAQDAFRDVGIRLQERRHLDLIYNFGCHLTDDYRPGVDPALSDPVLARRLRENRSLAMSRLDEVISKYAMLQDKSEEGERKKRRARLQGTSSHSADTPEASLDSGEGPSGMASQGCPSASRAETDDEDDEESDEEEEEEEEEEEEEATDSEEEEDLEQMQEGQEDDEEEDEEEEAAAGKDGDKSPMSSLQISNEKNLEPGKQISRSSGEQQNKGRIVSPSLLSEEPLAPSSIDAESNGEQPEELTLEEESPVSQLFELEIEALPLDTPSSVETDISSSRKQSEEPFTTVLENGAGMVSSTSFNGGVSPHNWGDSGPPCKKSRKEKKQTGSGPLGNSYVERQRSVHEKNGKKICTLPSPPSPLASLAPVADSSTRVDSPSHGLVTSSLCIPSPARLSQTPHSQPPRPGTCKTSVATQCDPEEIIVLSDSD

As for “DAXX found with transfected H3 in 293T cells (from UniProt Q9UER7 1-740) (natural protein)”, the reduction of DAXX binding against wild-type H3.3 turned out to be 50%.
